Experiment [1] concerns the target full-length BicD2 (zz-TEV-Halo-hBicD2^FL-6×His) (human) (UniProt Q8TD16). Kind of experiment: TIRF microtubule recruitment assay; Nup358^min-zip labeled at 488 nm, full-length hBicD2, dynein and dynactin (1:1:2:2), 10 nM dynein; with all, or without dynein or BicD2; microtubules labeled with Alexa Fluor 647.
The target of experiment [2] is HIV-1 capsid capsid (Human immunodeficiency virus 1) (UniProt O93182). The following applies: cited from earlier work.
Experiment [3] has as its target purified HIV-1 cores labelled with GFP-Vpr (HIV-1) (UniProt P12520). Kind of experiment: TIRF fluorescence intensity against a standard curve.
Experiment [4] has as its target recombinant human cytoplasmic dynein (full-length dynein complex) (human) (UniProt Q14204). Nature of the experiment: single-molecule TIRF colocalization.
The target is the same in experiment [5]. Kind of experiment: TIRF microtubule recruitment assay.

purified HIV-1 cores labelled with GFP-Vpr, sequence (P12520 whole entry, looked up): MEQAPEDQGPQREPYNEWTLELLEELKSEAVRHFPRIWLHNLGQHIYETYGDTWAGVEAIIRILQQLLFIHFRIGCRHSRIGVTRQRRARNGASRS
purified HIV-1 cores labelled with GFP-Vpr (HIV-1), sequence (P12520 whole entry, looked up): as above
HIV-1 capsid capsid (Human immunodeficiency virus 1), sequence (O93182 133-363): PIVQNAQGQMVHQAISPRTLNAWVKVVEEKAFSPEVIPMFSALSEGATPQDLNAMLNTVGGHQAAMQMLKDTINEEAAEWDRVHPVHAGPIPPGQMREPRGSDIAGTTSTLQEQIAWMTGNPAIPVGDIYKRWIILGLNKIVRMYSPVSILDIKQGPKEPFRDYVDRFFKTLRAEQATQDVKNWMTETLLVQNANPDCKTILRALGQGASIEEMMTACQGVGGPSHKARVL
full-length BicD2 (zz-TEV-Halo-hBicD2^FL-6×His) (human), sequence (Q8TD16 whole entry): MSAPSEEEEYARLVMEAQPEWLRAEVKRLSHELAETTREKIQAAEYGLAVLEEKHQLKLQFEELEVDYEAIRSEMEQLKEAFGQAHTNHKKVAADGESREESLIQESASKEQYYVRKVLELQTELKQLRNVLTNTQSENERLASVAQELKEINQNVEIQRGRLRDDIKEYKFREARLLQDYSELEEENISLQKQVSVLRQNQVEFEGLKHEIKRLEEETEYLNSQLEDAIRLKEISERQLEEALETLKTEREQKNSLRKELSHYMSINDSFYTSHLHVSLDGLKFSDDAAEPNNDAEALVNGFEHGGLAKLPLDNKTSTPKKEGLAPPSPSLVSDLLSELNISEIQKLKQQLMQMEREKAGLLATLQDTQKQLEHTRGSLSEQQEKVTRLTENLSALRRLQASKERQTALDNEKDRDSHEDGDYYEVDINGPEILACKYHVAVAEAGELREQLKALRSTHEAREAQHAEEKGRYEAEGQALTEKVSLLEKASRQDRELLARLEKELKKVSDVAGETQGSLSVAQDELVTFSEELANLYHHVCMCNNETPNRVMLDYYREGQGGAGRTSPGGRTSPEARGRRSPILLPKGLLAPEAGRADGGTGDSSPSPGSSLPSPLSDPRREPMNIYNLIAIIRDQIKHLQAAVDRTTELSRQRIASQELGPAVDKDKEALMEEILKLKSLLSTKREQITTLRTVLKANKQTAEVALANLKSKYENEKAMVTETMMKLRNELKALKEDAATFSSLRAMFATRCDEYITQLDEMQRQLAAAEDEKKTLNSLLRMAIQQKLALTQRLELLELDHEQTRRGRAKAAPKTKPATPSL
CypA, sequence (P62937 2-165): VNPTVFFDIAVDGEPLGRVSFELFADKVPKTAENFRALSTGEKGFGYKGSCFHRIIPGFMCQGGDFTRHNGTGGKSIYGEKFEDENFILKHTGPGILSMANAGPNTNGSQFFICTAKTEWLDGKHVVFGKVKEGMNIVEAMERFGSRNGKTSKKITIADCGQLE

Consider “Nup358^min-zip [hNup358(2148 to 2240)-GCN4-SnapTag] (from UniProt P49792 2148-2240)”, for which the fold loss of microtubule recruitment when BicD2 is left out in experiment [1] stood at 15 fold.

The term Kd denotes the concentration at which binding is half-saturated. With CypA (from UniProt P62937), the Kd in experiment [2] is above 13 µM.

As to “recombinant human cytoplasmic dynein (full-length dynein complex) (from UniProt Q14204 1-4646; Q13409 1-638; O43237 1-492; P63172 1-113; P63167 1-89; Q9NP97 1-96)”, the stoichiometry N (dynein dimers per HIV-1 core) in experiment [3] was 11.6.

For “purified HIV-1 cores labelled with GFP-Vpr (from UniProt P12520 1-96) (complex)”, the percent of microtubule-bound cores colocalized with dynein in experiment [4] was found to be 75.6%. The fold increase of cores on microtubules (with dynein, dynactin and BicD2^FL) in experiment [5] worked out at 3.4 fold.

Values taken from paper PMC12175901.
